Experiment: yeast display, Sf9 membrane polyspecificity reagent, FACS + sequencing; frameworks hold sequencing errors
Procedure, shortened: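 Nanobodies from a synthetic yeast display library (Saccharomyces cerevisiae BJ5465), induced 36–48 hours with galactose, were stained 1 hour at 4 °C with 10% biotinylated, detergent-solubilized Sf9 membrane reagent, enriched on streptavidin microbeads, then FACS-sorted. Anti-HA (expression) and streptavidin (reagent binding) fluorescence set low and high (top ~1%) gates. Polyreactivity labels come from the gate of origin. Genes were colony-PCR amplified, MiSeq 2 × 250 sequenced and filtered by CDR length.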

| Sequence | polyreactivity (PSR sort gate) |
| --- | --- |
| QVQLVESGGGLVQAGGSLRLSCAASGLTFFGNAMGWYRQAPGKERELVATISSGGGTSYADSVKGRFTISRDNAKNTVYLQMNSLKPEDTAVYFCAAEIVEEFDYWGQGTQVTVSS | low polyreactivity |
| QVQLVESGGGLVQAGGSLRLSCAASGITFTDYAMGWYRQAPGKERELVAAISGIGSTTYYADSVKGRFTISRDNAKNTVYLQMNSLKPEDTAVYYCNALLAYTYWYDYWGQGTQLTVSS | high polyreactivity |
| QVQLVESGGGLVQAGGSLRLSCAASGSIFVNNAMGWYRQAPGKERELVAAISSRSSRTFYADSVKGRFTISRDNAKISVYFHMNSLKPVDTGVYYWAVKKRSPHGDYCGQGTQVTVSS | high polyreactivity |
| QVQLVESGGGLVQAGGSLRLSCAASGSTISYYAMGWYIQAPGKERELVAAISQTGGTTYYADSVKGRFTISRDNAKNTVYLQMNSLKPEDTAVYYCNAARPGGHYWGQGTQVTVSS | low polyreactivity |
| QVQLLESGGGLVQAGGILRLSCSASGITFSVYDMGCYRQAPGKERELVASISSGGTSTYYADSVKGRFTISRDNAKNTVYFQMNSLKPEDTAVYYGAAYSYFNGDQYSYDYLGQGTQVTVSS | low polyreactivity |
| QVQLVESGGGLVQAGGSLRISCAAYGRIFWWYAMGWYRQAPGKERELVASIRYGGGSTYYADSVKGRFTISRDNAKNTVYLQMNSLKPEDTAVYYCAARFKRHGRSDYWGQGTQVTVSS | high polyreactivity |
| QVQLVESGGGLVQAGGSLRLSSAASGRIFSINAMGWYSQAPGKERELVATISWRGGSTYYADSVKGRFTISRDNAKNTVYLQMNSLKPEDTAVYYCAAKYPYYSSYAYGYWGQGTQVTVSS | high polyreactivity |
| QVQLVESGGGLVQAGGSLRLSCAASGFIFWANAMGWYRQAPGKERELVAAITWRNGRTYYADSVKGRFTISRDNAKNTVYLQMNSLKPEDTAVYYCAAPGSYARGTGRDYWGQGTQVTVSS | high polyreactivity |
| QVQLVESGGGLVQAGGSLRLSCAASGSTFTYNDMGWYRQAPGKERELVARITFSSGRTYYADSVKGRFTISRDNAKNTVYLQMNSLKPEDTAVYYCARQWYWRPGYYIGQGYEYWGQGTQVTVSS | low polyreactivity |
| QVQLVESGGGLVQAGGSLRLSCAASGFIFASYAMGWYRQAPWKERELVAAISYRGGTTYYADSVKGRFTISRDNAKNTVYLQMNSLKPEDTAVYYCAADSPENRYNDWGQGTQVTVSS | high polyreactivity |
| QVQLVESGGGLVQAGGSLRLSCAASGRIFSAYVMGWYRQAPGKERELVAAISSGGSRTSYADSVKGRVTISRDNAKNTVYLQMISLKPEDTAVYYCAASATFWGQGTQVNVSS | high polyreactivity |
| QVQLVESGGGLVQAGGSLRLSCAASGFTFYVYAMGWYRQAPGKERELVASISRGGSTYYADSVKGRFTISRDNAKNTVYLQINSLKPEDTAVYYCNRVPYVSSSKVRYSNGFDYWGQGTQVTVSS | low polyreactivity |
| QVQLVESGGGLVQAGGSLRLSCAASGFTFSKYTMGWYRQAPGKERELVAAITSGGSTYYADSVKGRFTISRDNAKNTVYLQMNSLKPEDTAVYYCNAESRHVFEDEYWGQGTQVTVSS | low polyreactivity |
| QVQLVESGGGLVQAGGSLRLSCAASGRTFPNVMGWYRQAPGKERELVAAISSSVGSTSYADSVKGRFTISRDNAKNTVYLQMNSLKPEDTAVYYCAARYYYRDWVGIISTYYYWGQGTQVTVSS | high polyreactivity |
| QVQLVESGGGLVQAGGSLRLSCAASGFTFPVYVMGWYRQAPGKERELVSAISGGGGTYYADSVKGRFTISRDNAKNTVYLQMNSLKPEDTAVYYCAADYRTYVYVYGFRHFDYWGQGTQVTVSS | low polyreactivity |
| QVQLQESAGGLVQAGGSLRLRCSASGYISCDASMGWYRQAPGKERELAASITQGSSTNYADSVKGRFTIRDNAKNTVYLQMNSLKPEDTAVCYCAVTYPYWGDYTYWGQGTQVTVSS | low polyreactivity |

| Sequence | polyreactivity (PSR sort gate) |
| --- | --- |
| QVQLVESGGGLVQAGGSLRLSCAASGSTLRRYAMGWDRQAPGKERELVAAISGSGDSTYYADSVKGRFTISRDNAKNTVYLQMNSLKPEDTAVYYCNAVYAFNGYDYWGQGTQVTVSS | low polyreactivity |
| QGQLEESGGGLVQAGGSLRLSCAAYGRIFYEYAMGLYRQAPGKERELVAISTAGCNTYYADSVKGRFTISRDNGKNTDYLQMNILKPEDTAVYYCAARLQYYPYYYWGQGTQVTVSS | high polyreactivity |
| QVQLVESGGGLVQAGGSLRLSCAASGSTFDKYTMGWYRQAPGKDRELVAAISWSGGSTYASSVKGRFTMSRDNAKNTVYLQMTCLKPEDTAVYSCAARYRNYDLWLGNRRGSYYSWGQGTQVTVSS | high polyreactivity |
| QVQLVESGGGLVQAGGSLRLSCAASGRTFPVNGMGWYRQAPGKERELVAAITGGGSTNYADSVKGRFTISRDNAKNTVYLQMNSLKPEDTAVYYCAAGSYSRYLYSLYFDFDYWGQGTQVTVSS | low polyreactivity |
| QVQLVESGGGLVQAGGSLRLICAASGFTFRAYAMGWYRQAPGKERELVAAISTVGGSTYYADSVKGRFTISRDNAKNTVYLQMNSLKPEETAVYYCAARRRTGREYGYWGKGTQVTVSS | high polyreactivity |
| QVQLVESGGGLVQAGGSLRLSCAASGFTFTDYTMGWYRQAPGKEREFVAAISYRGSNTYYADSVKGRFTISRDNAKNTVYLQMNSLKPEDTAVYYCAADSYRYKYNYWGQGTQVTVSS | high polyreactivity |
| QVQLVESGGGLVQAGGSLRLSCAASAFIFRYYAIGGYRQAPGNERELVAAIARSGGSTYYADSVKGRFTISRDNAKNTVYLQMNSLKPEVTAVYYCNRGDVIGRQYDSAYGYWGQGTQVTVSS | high polyreactivity |
| QVQLVESGGGLVQAGGSLRLSCAASGRILARYTMGWYRQAPGKERELVAAISRSSGSTYYADSVKGRFTISRDTAKNTVYLQMNSLKPEDTAVYYCAAYLSYWGQGTQVTVSS | high polyreactivity |
| QVQLVESGGGLVQAGGSLRLSCAASGRTFYIYAMGWYRPAPGKERELVAAITSGRSTSYADSVKGRFTISRDNAKNTVYLQMNSLKPEDTAVYYCAADQYTYWFGYDYWGQGTQVTVSS | low polyreactivity |
| QVQHGESGGGIVQAVVSLRLSCSASGFTFYYYPMGWYRQAPGKERELVAAIDTGGSTNYADSVKGRFTMSRDNAKNTVYLQMNSLKPEDTAVYYCNALQPGLGSPLGEYDYWGQGTQVTVSS | low polyreactivity |
| QVELVESGGGLVQAGGSLRISCDASGSTFRWYAMGWYRQGPGKERELVAAINRSGGSTYYADSVKGRFTISRDNAKNTVYLQMNSLKPEDTAVYYCEARWYSSSRWYKYNYWGQGTQVTVSS | high polyreactivity |
| QVQLVESGGGLVQAGGSLRLSCAASGSTFPSYAMGWYRQAPGKERELVAAINSGGGTNYADSVKGRFTISRDNAKNTVYLQMNSLKPEDTAVYYCATDDPLSQINEQGMDYWGQGTQVTVSS | low polyreactivity |
| QDQLVESGGGLVQAGGSLRLSCAASGRTFWRYAMGWYRQAPGKERELVAAITSGGGSTYYADSVKGRFTISRDTAKNTVYLQMNSLKPEDTAVSYCNRAGRGRSFKGDYWGQGTQVTVSS | high polyreactivity |
| QVQLVESGGGLVQAGGSLRLSCAASGFIFNQYAMGWYRQAPGKERELVAAIRGSGGRTYYADSVKGRFTISRDNAKNTVYFQMNSLKPEDTAVYYCAKQRFGYRRSPGDYWGQGTQVTVSS | high polyreactivity |
| QVQLVESGGGLVQAGGSLSLSCAASGLTFDTNAMGWYRQAPGKERELVAAITDSGDSTYYADSVKGRFTISRDNEKNTVYLQMNSLKPEDTAVYYCAARRSNLAWGRRRMYYWGQGTQVTVSS | high polyreactivity |
| QVQLQERGGGLVQAGGSLCLTCEASGTIFYDGDMGLYRQAPGKEREFVAAINPGGSAYYADSVKGRLPLAAITHTVYLQMFSLKPEDTAVYYCAAEQITGWSRVWVSWYDYWGQGTQVTVSS | low polyreactivity |

— the nanobody polyreactivity screen of Harvey et al. (2022)
